Data on four molecules can be found in paper PMC2920134 (The Journal of neuroscience : the official journal of the …, 2010).

Where two headings read alike, the source gives them in different places.

Holding throughout (assay): pull-down
One experiment has as its target His6-tagged Arr1 (mouse, UniProt P20443 1-403).
The target of experiment [1] is His6-tagged NSF truncated segment (AA 197-744) (mouse, UniProt P46460 197-744).
The target of experiment [2] is T1, His6-tagged NSF (AA 1-744) (mouse, UniProt P46460 1-744).
The target of experiment [3] is T1, His6-tagged NSF (AA 1-744). The source holds these as a separate data set.

Chain of His6-tagged NSF truncated segment (AA 197-744) (P46460 197-744): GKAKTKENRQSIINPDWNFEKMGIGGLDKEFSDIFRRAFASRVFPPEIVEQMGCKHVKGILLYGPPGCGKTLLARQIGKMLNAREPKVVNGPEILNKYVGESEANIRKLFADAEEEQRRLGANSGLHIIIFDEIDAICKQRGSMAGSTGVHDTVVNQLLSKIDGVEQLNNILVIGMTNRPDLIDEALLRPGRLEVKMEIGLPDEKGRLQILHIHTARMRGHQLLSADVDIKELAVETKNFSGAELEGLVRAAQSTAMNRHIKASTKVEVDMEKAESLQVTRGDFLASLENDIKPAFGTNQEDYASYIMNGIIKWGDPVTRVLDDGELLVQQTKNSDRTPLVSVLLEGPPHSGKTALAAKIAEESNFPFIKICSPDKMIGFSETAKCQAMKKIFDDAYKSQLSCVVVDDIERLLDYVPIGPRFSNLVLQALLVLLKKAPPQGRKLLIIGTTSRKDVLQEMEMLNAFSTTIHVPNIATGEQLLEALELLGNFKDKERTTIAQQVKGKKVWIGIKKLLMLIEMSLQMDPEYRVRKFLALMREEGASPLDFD

B1: GST-tagged NSF (AA 1-250) (domain or fragment, mouse, UniProt P46460 1-250, looked up)
chain: MAGRTMQAARCPTDELSLSNCAVVNEKDFQSGQHVMVRTSPNHKYIFTLRTHPSVVPGCIAFSLPQRKWAGLSIGQDIEVALYSFDKAKQCIGTMTIEIDFLQKKNIDSNPYDTDKMAAEFIQQFNNQAFSVGQQLVFSFNDKLFGLLVKDIEAMDPSILKGEPASGKRQKIEVGLVVGNSQVAFEKAENSSLNLIGKAKTKENRQSIINPDWNFEKMGIGGLDKEFSDIFRRAFASRVFPPEIVEQMGC
Regarding B1, the binding result in the experiment with His6-tagged Arr1 is “binds”.

B2: GST-tagged Arr1 [AA 1-403] (natural protein, mouse, UniProt P20443 1-403, looked up)
chain: MAACGKTNKSHVIFKKVSRDKSVTIYLGKRDYVDHVSQVEPVDGVVLVDPELVKGKKVYVTLTCAFRYGQEDIDVMGLTFRRDLYFSRVQVYPPVGAMSVLTQLQESLLKKLGDNTYPFLLTFPDYLPCSVMLQPAPQDVGKSCGVDFEVKAFASDITDPEEDKIPKKSSVRLLIRKVQHAPPEMGPQPSAEASWQFFMSDKPLNLSVSLSKEIYFHGEPIPVTVTVTNNTDKVVKKIKVSVEQIANVVLYSSDYYVKPVASEETQEKVQPNSTLTKTLVLVPLLANNRERRGIALDGKIKHEDTNLASSTIIKEGIDRTVMGILVSYHIKVKLTVSGFLGELTSSEVATEVPFRLMHPQPEDPAKESVQDENLVFEEFARQNLKDTGENTEGKKDEDAGQDE
Regarding B2, the binding result in experiment [1] and in experiment [2] was “binds” throughout.

B3: GST-tagged truncated Arr1 [AA 1-370] (domain or fragment, mouse, UniProt P20443 1-370, looked up)
chain: MAACGKTNKSHVIFKKVSRDKSVTIYLGKRDYVDHVSQVEPVDGVVLVDPELVKGKKVYVTLTCAFRYGQEDIDVMGLTFRRDLYFSRVQVYPPVGAMSVLTQLQESLLKKLGDNTYPFLLTFPDYLPCSVMLQPAPQDVGKSCGVDFEVKAFASDITDPEEDKIPKKSSVRLLIRKVQHAPPEMGPQPSAEASWQFFMSDKPLNLSVSLSKEIYFHGEPIPVTVTVTNNTDKVVKKIKVSVEQIANVVLYSSDYYVKPVASEETQEKVQPNSTLTKTLVLVPLLANNRERRGIALDGKIKHEDTNLASSTIIKEGIDRTVMGILVSYHIKVKLTVSGFLGELTSSEVATEVPFRLMHPQPEDPAKESVQ
As to B3, in experiment [3], the binding result is recorded as “binds”.

B4: GST-tagged truncated Arr1 [AA 1-191] (domain or fragment, mouse, UniProt P20443 1-191, looked up)
chain: MAACGKTNKSHVIFKKVSRDKSVTIYLGKRDYVDHVSQVEPVDGVVLVDPELVKGKKVYVTLTCAFRYGQEDIDVMGLTFRRDLYFSRVQVYPPVGAMSVLTQLQESLLKKLGDNTYPFLLTFPDYLPCSVMLQPAPQDVGKSCGVDFEVKAFASDITDPEEDKIPKKSSVRLLIRKVQHAPPEMGPQPSA
For B4, the binding result in experiment [3] is given as “binds”.
